Measurements published in patent US20240417433A1 (NANTONG YICHEN BIOPHARMA, published 2024).
Values joined by “and” are separate entries in the source; they are usually repeats but may differ in a detail not shown here. Equal entries are not always repeated.

Key:
[1] = biological target: integrin β7 on human β7-high T cells (human, UniProt P26010 20-798; P13612 34-1032); test: cell-based or functional assay
Recombinant protein α4β7 = biological target: T1, Recombinant protein α4β7 (UniProt P13612 34-977; P26010 20-723); test: ELISA on coated recombinant α4β7 (100 ng per well)
T1 construct: Coated on the ELISA plate at 100 ng per well; also called integrin β7
T1 sequence (P13612 34-977, chain 1 of 2): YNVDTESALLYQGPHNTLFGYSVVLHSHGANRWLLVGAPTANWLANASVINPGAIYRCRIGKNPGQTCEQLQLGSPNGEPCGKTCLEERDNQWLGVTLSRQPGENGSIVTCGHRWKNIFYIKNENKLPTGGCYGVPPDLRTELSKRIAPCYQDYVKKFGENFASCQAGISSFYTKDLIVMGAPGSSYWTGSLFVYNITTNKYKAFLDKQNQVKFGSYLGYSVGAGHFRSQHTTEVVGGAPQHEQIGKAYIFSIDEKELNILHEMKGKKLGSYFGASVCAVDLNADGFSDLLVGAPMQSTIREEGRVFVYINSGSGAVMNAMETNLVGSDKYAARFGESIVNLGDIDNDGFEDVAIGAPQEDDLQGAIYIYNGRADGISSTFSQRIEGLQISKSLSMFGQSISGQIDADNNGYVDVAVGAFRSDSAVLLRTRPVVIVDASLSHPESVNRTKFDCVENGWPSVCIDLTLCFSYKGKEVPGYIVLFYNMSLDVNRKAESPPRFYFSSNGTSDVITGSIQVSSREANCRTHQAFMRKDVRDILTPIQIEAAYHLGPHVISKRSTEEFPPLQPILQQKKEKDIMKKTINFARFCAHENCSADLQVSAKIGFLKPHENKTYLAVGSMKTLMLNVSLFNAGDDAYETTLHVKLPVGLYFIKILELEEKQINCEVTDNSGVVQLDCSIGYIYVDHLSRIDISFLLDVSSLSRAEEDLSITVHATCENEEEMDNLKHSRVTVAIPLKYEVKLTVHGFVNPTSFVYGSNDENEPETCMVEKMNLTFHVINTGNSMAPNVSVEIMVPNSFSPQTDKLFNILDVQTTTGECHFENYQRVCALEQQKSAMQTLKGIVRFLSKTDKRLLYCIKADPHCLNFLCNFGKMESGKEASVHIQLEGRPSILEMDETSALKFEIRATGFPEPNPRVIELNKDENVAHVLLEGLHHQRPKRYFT
T1 sequence (P26010 20-723, chain 2 of 2): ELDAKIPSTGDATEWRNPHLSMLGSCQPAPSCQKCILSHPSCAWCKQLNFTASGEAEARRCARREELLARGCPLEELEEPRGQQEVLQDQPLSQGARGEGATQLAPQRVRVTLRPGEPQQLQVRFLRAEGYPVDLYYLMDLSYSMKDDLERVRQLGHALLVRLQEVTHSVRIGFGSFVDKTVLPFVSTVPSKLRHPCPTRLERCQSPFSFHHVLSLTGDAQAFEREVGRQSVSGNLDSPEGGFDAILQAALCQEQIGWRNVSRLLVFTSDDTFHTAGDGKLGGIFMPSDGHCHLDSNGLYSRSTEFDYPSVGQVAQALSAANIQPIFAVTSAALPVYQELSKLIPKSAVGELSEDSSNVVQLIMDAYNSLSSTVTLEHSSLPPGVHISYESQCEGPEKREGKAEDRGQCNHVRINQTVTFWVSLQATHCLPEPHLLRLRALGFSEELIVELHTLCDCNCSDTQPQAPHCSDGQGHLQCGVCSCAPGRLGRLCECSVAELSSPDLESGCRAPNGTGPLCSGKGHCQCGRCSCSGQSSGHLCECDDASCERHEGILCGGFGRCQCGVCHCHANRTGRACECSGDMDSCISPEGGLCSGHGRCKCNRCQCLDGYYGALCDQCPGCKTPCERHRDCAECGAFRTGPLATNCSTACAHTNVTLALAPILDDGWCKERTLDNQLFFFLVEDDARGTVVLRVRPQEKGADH

[2] = biological target: Kv1.3 potassium ion channel (UniProt P22001 1-575); test: cell-based or functional assay
Sequence of Kv1.3 potassium ion channel (P22001 whole entry): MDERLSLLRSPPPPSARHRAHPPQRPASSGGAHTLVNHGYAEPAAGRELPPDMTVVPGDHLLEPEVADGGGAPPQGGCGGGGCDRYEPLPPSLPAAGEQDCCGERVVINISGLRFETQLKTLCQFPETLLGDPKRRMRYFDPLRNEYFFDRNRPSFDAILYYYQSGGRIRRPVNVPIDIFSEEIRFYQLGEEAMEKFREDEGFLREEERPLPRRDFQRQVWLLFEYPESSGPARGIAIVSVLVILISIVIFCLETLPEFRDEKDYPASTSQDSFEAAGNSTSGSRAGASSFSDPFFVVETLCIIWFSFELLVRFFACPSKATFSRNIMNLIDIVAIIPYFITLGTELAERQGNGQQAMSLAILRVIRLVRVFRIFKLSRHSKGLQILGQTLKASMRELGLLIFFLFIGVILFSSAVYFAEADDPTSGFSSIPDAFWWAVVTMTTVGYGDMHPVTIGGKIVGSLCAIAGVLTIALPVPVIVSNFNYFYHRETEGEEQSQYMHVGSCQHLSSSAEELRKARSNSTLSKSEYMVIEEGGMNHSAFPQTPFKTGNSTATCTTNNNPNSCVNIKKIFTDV

B1: Etrolizumab (antibody, V domains shown)
VH: EVQLVESGGGLVQPGGSLRLSCAASGFFITNNYWGWVRQAPGKGLEWVGYISYSGSTSYNPSLKSRFTISRDTSKNTFYLQMNSLRAEDTAVYYCARTGSSGYFDFWGQGTLVTVSS
VL: DIQMTQSPSSLSASVGDRVTITCRASESVDDLLHWYQQKPGKAPKLLIKYASQSISGVPSRFSGSGSGTDFTLTISSLQPEDFATYYCQQGNSLPNTFGQGTKVEIKR
IC50, cell adhesion assay (CellTiter-Glo) [1]: 0.06 µg/ml and 0.42 nM

B2: ATF-H2 (bispecific antibody)
heavy: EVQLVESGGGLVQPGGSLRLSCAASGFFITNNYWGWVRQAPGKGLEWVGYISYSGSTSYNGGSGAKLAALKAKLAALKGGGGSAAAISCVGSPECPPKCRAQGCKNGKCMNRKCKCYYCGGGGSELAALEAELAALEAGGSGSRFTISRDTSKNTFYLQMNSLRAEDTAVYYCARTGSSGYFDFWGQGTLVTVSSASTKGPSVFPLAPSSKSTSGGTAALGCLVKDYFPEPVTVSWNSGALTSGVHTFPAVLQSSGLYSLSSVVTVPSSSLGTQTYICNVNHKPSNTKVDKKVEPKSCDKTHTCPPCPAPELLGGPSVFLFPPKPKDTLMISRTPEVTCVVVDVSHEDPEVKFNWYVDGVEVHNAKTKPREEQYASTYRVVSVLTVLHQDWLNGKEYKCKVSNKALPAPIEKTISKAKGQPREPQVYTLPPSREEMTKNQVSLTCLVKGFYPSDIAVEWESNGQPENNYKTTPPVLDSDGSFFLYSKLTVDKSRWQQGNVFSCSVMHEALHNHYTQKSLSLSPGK
light: DIQMTQSPSSLSASVGDRVTITCRASESVDDLLHWYQQKPGKAPKLLIKYASQSISGVPSRFSGSGSGTDFTLTISSLQPEDFATYYCQQGNSLPNTFGQGTKVEIKRTVAAPSVFIFPPSDEQLKSGTASVVCLLNNFYPREAKVQWKVDNALQSGNSQESVTEQDSKDSTYSLSSTLTLSKADYEKHKVYACEVTHQGLSSPVTKSFNRGEC
notes: The summary says the graft lies between 60N and 65S of heavy chain FR3; also called ATF-H2 (with HCDR2-grafted Vm24)
Kd (Recombinant protein α4β7): 0.0192 nM | IC50, cell adhesion assay (CellTiter-Glo) [1]: 0.072 µg/ml and 0.45 nM | IC50, Flipr potassium current fluorescence detection [2]: 0.53 nM

B3: ATF-L1 (bispecific antibody)
heavy: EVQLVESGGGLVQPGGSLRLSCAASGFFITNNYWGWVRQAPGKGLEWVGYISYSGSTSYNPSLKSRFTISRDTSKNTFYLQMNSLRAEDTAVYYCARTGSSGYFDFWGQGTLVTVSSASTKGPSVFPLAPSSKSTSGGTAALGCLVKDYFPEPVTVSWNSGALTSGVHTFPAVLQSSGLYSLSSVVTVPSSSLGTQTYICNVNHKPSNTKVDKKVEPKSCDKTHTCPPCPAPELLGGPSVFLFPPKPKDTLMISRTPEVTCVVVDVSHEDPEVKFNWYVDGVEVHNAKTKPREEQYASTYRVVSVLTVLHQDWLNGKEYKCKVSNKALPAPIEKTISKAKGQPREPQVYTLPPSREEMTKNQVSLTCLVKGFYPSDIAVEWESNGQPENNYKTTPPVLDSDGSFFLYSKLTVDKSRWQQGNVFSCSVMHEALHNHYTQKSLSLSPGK
light: DIQMTQSPSSLSASVGDRVTITCRASESGGSGAKLAALKAKLAALKGGGGSAAAISCVGSPECPPKCRAQGCKNGKCMNRKCKCYYCGGGGSELAALEAELAALEAGGSGLLHWYQQKPGKAPKLLIKYASQSISGVPSRFSGSGSGTDFTLTISSLQPEDFATYYCQQGNSLPNTFGQGTKVEIKRTVAAPSVFIFPPSDEQLKSGTASVVCLLNNFYPREAKVQWKVDNALQSGNSQESVTEQDSKDSTYSLSSTLTLSKADYEKHKVYACEVTHQGLSSPVTKSFNRGEC
IC50, cell adhesion assay (CellTiter-Glo) [1]: 0.173 µg/ml and 1.09 nM | IC50, Flipr potassium current fluorescence detection [2]: 0.7 nM

B4: ATF-H1 (bispecific antibody)
heavy: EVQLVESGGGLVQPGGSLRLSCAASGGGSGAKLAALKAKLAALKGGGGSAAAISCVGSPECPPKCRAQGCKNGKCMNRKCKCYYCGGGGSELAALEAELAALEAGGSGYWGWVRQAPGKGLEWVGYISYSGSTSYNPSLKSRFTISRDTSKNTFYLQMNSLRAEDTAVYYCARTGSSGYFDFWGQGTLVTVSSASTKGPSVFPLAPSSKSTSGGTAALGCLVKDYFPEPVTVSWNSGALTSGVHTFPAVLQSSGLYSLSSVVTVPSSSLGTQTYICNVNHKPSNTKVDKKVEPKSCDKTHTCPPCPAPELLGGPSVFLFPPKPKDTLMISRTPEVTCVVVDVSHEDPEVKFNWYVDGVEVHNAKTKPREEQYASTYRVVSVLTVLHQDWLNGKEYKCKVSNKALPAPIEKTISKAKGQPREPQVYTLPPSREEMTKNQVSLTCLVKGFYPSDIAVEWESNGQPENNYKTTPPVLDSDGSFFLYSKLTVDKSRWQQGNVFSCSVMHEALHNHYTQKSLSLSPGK
light: B2 light
notes: Vm24 with linkers grafted into HCDR1 of etrolizumab; also called ATF-H1 (with HCDR1-grafted Vm24)
binding result (Recombinant protein α4β7): no binding | IC50, Flipr potassium current fluorescence detection [2]: 0.72 nM

B5: ATF-L2 (bispecific antibody)
heavy: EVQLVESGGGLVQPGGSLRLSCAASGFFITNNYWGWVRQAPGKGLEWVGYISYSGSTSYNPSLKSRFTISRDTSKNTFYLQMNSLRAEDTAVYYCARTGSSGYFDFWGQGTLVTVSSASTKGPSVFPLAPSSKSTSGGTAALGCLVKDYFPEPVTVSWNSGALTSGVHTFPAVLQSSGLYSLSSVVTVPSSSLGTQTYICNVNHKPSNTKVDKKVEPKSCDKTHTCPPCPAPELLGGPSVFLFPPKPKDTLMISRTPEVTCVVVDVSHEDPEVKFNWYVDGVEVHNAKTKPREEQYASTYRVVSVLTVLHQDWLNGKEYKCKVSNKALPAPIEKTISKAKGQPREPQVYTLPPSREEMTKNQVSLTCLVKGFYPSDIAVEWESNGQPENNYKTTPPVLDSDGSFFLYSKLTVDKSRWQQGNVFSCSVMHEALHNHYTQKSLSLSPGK
light: DIQMTQSPSSLSASVGDRVTITCRASESVDDLLHWYQQKPGKAPKLLIKYASQSISGGSGAKLAALKAKLAALKGGGGSAAAISCVGSPECPPKCRAQGCKNGKCMNRKCKCYYCGGGGSELAALEAELAALEAGGSGSRFSGSGSGTDFTLTISSLQPEDFATYYCQQGNSLPNTFGQGTKVEIKRTVAAPSVFIFPPSDEQLKSGTASVVCLLNNFYPREAKVQWKVDNALQSGNSQESVTEQDSKDSTYSLSSTLTLSKADYEKHKVYACEVTHQGLSSPVTKSFNRGEC
notes: The summary says the graft lies between 56S and 60S of light chain FR3; also called ATF-L2 (with LCDR2-grafted Vm24)
Kd (Recombinant protein α4β7): 0.0359 nM

B6: ATF-L3 (bispecific antibody)
heavy: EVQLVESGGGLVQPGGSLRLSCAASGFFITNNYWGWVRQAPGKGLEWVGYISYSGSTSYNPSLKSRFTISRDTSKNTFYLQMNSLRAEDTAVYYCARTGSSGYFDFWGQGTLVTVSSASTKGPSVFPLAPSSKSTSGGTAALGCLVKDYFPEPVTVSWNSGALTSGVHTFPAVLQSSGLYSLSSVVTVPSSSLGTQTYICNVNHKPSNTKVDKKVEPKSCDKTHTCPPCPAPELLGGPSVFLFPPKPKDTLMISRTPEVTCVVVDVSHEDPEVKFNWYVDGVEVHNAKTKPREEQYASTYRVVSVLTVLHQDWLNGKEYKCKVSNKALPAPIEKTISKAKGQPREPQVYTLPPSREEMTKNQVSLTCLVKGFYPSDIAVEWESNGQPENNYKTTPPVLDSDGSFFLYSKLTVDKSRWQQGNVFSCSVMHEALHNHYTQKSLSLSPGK
light: DIQMTQSPSSLSASVGDRVTITCRASESVDDLLHWYQQKPGKAPKLLIKYASQSISGVPSRFSGSGSGTDFTLTISSLQPEDFATYYCQQGGGSGAKLAALKAKLAALKGGGGSAAAISCVGSPECPPKCRAQGCKNGKCMNRKCKCYYCGGGGSELAALEAELAALEAGGSGNTFGQGTKVEIKRTVAAPSVFIFPPSDEQLKSGTASVVCLLNNFYPREAKVQWKVDNALQSGNSQESVTEQDSKDSTYSLSSTLTLSKADYEKHKVYACEVTHQGLSSPVTKSFNRGEC
notes: Vm24 with linkers grafted into LCDR3 of etrolizumab; also called ATF-L3 (with LCDR3-grafted Vm24)
Kd (Recombinant protein α4β7): 0.0408 nM

B7: ATF-H3 (bispecific antibody)
heavy: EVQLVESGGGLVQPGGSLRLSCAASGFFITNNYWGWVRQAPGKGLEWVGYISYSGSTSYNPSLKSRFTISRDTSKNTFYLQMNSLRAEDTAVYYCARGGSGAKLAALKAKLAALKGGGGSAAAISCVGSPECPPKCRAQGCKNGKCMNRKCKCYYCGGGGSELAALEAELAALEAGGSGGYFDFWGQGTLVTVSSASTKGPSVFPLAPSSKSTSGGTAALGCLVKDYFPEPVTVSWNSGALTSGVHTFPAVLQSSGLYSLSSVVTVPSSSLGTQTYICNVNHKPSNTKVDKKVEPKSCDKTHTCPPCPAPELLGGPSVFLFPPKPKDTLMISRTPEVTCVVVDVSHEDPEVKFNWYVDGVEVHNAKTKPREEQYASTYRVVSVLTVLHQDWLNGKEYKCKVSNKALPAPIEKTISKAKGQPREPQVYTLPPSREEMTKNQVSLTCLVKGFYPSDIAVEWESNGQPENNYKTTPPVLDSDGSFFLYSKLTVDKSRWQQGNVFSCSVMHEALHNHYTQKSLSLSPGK
light: B2 light
notes: Vm24 with linkers grafted into HCDR3 of etrolizumab; also called ATF-H3 (with HCDR3-grafted Vm24)
Kd (Recombinant protein α4β7): 13.9 nM
